Assay results taken from patent US20100260773A1 (UCB, published 2010).
Several values for one entry are separate records, joined by “and”; a condition that tells them apart may be missing. Equal values may be shown once.

Experiments:
[1] = molecular target: variant human IL-13 (R130Q) (human) (UniProt P35225); test: cell-based or functional assay
cynomolgus monkey IL-13 [2] = molecular target: T1, cynomolgus monkey IL-13 (cynomolgus monkey, UniProt Q0PW92 21-132); test: cell-based or functional assay
human IL-13 (wild type) [3] = molecular target: T2, human IL-13 (wild type) (human, UniProt P35225 35-146); test: cell-based or functional assay
cynomolgus monkey IL-13 [4] = molecular target: T1, cynomolgus monkey IL-13; test: cell-based or functional assay; remark: listed apart in the source
Rat IL-13 = molecular target: T3, Rat IL-13 (rat, UniProt P42203 19-131, limits assumed); test: cell-based or functional assay
T3 sequence (looked up): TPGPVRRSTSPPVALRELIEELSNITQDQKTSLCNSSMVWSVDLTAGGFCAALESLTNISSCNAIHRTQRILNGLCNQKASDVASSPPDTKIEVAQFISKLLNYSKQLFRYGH

human IL-13 (wild type) [5] = molecular target: T2, human IL-13 (wild type); test: Biacore 3000 SPR; purified Ab652 Fab captured by anti-human F(ab')2, hIL-13 as analyte; average of the table's runs
Experimental: (§1) BIA (Biamolecular Interaction Analysis) was performed using a BIAcore 3000 (BIAcore AB). Affinipure F(ab′)₂ Fragment, goat anti-human IgG, F(ab′)₂ fragment specific (Jackson ImmunoResearch) was immobilised on a CM5 Sensor Chip via amine coupling chemistry to a capture level of ≈4000 response units (RUs). A blank surface was prepared in a similar way, omitting the F(ab′)₂ fragment from the procedure. HBS-EP buffer (10 mM HEPES pH 7.4, 0.15 M NaCl, 3 mM EDTA, 0.005% Surfactant P20, BIAcore AB) was used as the running buffer with a flow rate of 10 μl/min. A 10 μl injection of Ab652 Fab at ˜0.2 μg/mL was used for capture by the immobilised anti-human IgG-F(ab′)₂ to allow sufficient IL-13 binding but also to minimise mass transport limited binding effects. Human IL13 was titrated over the captured Ab652 at various concentrations (10 nM to 0.31 nM) at a flow rate of 30 μL/min The surface was regenerated by a 10 μl it injection of 40 mM HCl, followed by a 5 μl it injection of 5 mM NaOH at a flowrate of 10 μL/min
(§2) Background subtraction binding curves were analysed using the BIAevaluation software (version 3.2) following standard procedures. Kinetic parameters were determined from the fitting algorithm.

human IL-13 (wild type) [6] = molecular target: T2, human IL-13 (wild type); test: Biacore 3000 SPR; Ab652 Fab captured by immobilised anti-human F(ab')2, hIL-13 titrated as analyte; average of 3 determinations
Experimental: as §1, §2

T2 sequence (P35225 35-146 limits assumed): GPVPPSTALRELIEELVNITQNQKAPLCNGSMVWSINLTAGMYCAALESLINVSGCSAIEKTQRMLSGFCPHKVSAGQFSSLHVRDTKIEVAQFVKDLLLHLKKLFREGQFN
T1 sequence (Q0PW92 entry or part of it): as the sequence (P35225 35-146 limits assumed) above, with G1S, R10K, M42V, S67N, H83R, L100V counted along it
Chain of variant human IL-13 (R130Q) (human) (P35225 35-146, stated change not applied): as the sequence (P35225 35-146 limits assumed) above

B1: Ab652 (humanised anti-human IL-13 Fab, graft gL1gH2) (Fab, V domains shown)
VH: QVTLKESGPVLVKPTETLTLTCTVSGFSLTNYHVQWIRQPPGKALEWLGVMWSDGDTSFNSVLKSRLTISRDTSKSQVVLTMTNMDPVDTATYYCARDGTIAAMDYFDYWGQGTLVTVSS
VL: DIQMTQSPSSLSASVGDRVTITCLASEDISNYLAWYQQKPGKAPKLLIYHTSRLQDGVPSRFSGSGSGTDFTLTISSLQPEDFATYYCQQGYRFPLTFGGGTKVEIKR
notes: also called Ab652 Fab
For B1, the IC50 Ab652 Fab, HEK-Blue STAT-6 assay; IL-13 source natural human T cell, R130Q variant (250 pg/ml) [1] was 1.66 ng/mL, the “neutralisation potency against cynomolgus IL-13 relative to human IL-13 from rat fibroblasts, HEK Blue assay” value (cynomolgus monkey IL-13 [2]) was ≤ 3 fold and the “IC50 Ab652 Fab, HEK-Blue STAT-6 assay; IL-13 source E. coli-derived, wild type (250 pg/ml)” value (human IL-13 (wild type) [3]) was 1.05 ng/mL. The “IC50 Ab652 Fab, HEK-Blue STAT-6 assay; IL-13 source mammalian (rat fibroblasts), wild type (250 pg/ml)” value (human IL-13 (wild type) [3]) was 0.57 ng/mL, the “IC50 Ab652 Fab, HEK-Blue STAT-6 assay; IL-13 source natural human T cell, wild type (250 pg/ml)” value (human IL-13 (wild type) [3]) was 2.12 ng/mL and the “IC50 Ab652 Fab, HEK-Blue STAT-6 assay; nebulised Fab (IL-13 source of this row not given)” value (human IL-13 (wild type) [3]) was 1.15 ng/mL. For the same binder, the “IC50 Ab652 Fab, HEK-Blue STAT-6 assay; cynomolgus IL-13 on human receptor (1/4,000 = 250 pg/ml)” value (cynomolgus monkey IL-13 [4]) was 1.61 ng/mL, the “IC50 of Ab652, HEK Blue assay; recombinant mammalian cell derived rat IL-13 (transfected HEK293 supernatant), n = 1” value (Rat IL-13) was 953 ng/ml and 20000 pM and the Kd (human IL-13 (wild type) [5]) was 0.0134 nM and 0.013 nM. The koff (human IL-13 (wild type) [5]) was 6.27e-05 s⁻¹, the kon (human IL-13 (wild type) [5]) was 4.82e+06 M⁻¹ s⁻¹ and the Kd (human IL-13 (wild type) [6]) was 0.0152 nM and 0.015 nM. The koff (human IL-13 (wild type) [6]) was 6.52e-05 s⁻¹ and the kon (human IL-13 (wild type) [6]) was 4.51e+06 M⁻¹ s⁻¹.
